The series has as its target T1, endogenous MGR (Mus musculus (C2C12 myoblasts)) (UniProt D2EAC2).
T1 sequence: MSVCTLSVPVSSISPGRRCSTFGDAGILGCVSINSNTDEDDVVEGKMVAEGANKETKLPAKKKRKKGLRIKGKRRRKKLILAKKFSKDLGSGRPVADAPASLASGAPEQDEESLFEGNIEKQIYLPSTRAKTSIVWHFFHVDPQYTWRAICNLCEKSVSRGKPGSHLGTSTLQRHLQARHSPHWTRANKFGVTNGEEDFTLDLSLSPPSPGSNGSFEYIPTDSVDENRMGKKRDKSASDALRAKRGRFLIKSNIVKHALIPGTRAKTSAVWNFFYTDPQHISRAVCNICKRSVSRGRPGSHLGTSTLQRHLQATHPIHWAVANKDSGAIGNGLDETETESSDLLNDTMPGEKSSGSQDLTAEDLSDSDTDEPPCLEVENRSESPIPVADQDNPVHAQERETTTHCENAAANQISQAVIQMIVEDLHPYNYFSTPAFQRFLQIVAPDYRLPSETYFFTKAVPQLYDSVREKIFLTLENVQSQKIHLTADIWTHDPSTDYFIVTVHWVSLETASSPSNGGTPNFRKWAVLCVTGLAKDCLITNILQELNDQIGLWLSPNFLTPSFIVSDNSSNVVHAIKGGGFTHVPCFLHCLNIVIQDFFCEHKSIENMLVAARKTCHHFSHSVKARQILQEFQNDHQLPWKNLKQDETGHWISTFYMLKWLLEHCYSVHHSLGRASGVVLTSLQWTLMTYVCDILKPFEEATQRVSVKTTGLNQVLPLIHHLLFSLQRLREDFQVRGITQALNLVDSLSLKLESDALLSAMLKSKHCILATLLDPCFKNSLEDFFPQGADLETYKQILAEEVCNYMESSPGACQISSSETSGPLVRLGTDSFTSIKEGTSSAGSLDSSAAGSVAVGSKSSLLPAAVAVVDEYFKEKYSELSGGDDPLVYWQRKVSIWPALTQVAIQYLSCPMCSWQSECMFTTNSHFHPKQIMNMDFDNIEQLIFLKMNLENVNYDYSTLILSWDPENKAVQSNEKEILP
Description: pull-down, SILAC MS.

In the case of “TTCAAAACTGCAGGATCCTTCGCCTAGGCTCGCAGCGCGGGAGCGA / AATCGCTCCCGCGCTGCGAGCCTAGGCGAAGGATCCTGCAGTTTTG [porcine IGF2 q (pulldown)]”, the binding signal (SILAC ratio q/Q) is 5.5.

For the origin of these results see PMC2854606.
